The record followed here is PMC4422553.

For the experiment, the target named is His6-tagged Rev-A IN (reticuloendotheliosis virus strain A integrase) (reticuloendotheliosis virus strain A (Rev-A)).
Sequence of His6-tagged Rev-A IN (reticuloendotheliosis virus strain A integrase) (reticuloendotheliosis virus strain A (Rev-A)) (P03360 752-1152 limits assumed): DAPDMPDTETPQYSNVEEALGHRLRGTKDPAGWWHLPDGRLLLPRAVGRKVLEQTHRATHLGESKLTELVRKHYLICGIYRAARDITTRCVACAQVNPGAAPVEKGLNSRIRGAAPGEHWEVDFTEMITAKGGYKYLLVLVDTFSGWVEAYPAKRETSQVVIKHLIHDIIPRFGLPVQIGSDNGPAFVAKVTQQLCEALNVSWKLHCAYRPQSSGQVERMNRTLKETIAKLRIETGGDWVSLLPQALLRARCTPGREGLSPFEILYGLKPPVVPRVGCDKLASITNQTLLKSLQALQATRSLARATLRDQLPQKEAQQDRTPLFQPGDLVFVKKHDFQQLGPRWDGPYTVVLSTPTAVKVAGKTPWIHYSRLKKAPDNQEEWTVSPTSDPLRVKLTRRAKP

For “BRD4(462-720), C-terminal fragment of human BRD4 that contains the ET domain (from UniProt O60885-2 462-720) (domain or fragment)”, the concerted integration (DNA strand transfer) activity of Rev-A IN in vitro with 0.05, 0.15, 0.35, 0.5 μM BRD4 (462–720), against the activity without BRD4 protein was 5 fold.
